From the DeepSol protein solubility set

experiment: soluble on expression in E. coli; label from the status in PepcDB or PDB records

Sequence	soluble on expression in E. coli
LQMTQSPSFLSASVGDRVSITCRASQDIQKFLAWYQLTPGDAPKLLMYSASTLQSGVPSRFSGSGSGTEFTLTISGLQPEDFATYYCQHLKRYPYTFGQGTKLEISRTVAAPSVFIFPPSDEQLKSGTASVVCLLNNFYPREAKVQWKVDNALQSGNSQESVTEQDNKDSTYSLSSTLTLSKADYEKHKVYACEVTHQGLSSPVTKSFNRGEC	soluble
LRDFNYSIAGNLTWARNKVIDLLEPAGEKNNPRQRSTGHSMSQYFGYEALGLFQSDEEANNWPQPQFGKAKAGDIKYKDQNGDGIIDAEDEIAIGRSNYPELVYGLNLNAEWKGFDITFFFQGAALADFYYNGYLAFPYIEGRGGALLEHHIGNTWTPENPKAEFPRLYYGGNANNQLFSSFWMRNGSYLRLKNVEIGYDFKKLLLSKVSEIQGLRLYFSGSNLLTWSQIKYFDPELRSTDGSAYPQMKTFVFGANITF	not soluble
LSAQEIIQYISDAKKSTPLKVYVNGHFENVTFPESFKVFGSEHSKVIFCEANEWKQFYQQNHSLITELEIEMDRRNSAIPLKDLTNTN	soluble
LSDKLMERLKERAEGIFVSGPPGSGKSTFVAALAEFYRSQGKIVKTMESPRDLQVSKEITQYAPLEGDMEKTCDILLLVRPDYTIYDEVRKTRDFEIFADMRMAGVGMVGVVHASKPIDAIQRLIGRVELGVIPQVVDTVIFIKDGKIQKVYEIDFTVKVPYG	not soluble
LYAPLVSLMITVPVFGQHEYTHALVADLEREGADYLIVDNRGDYPRIGTERVSTPGENLGWAGGSELGFRLAFAEGYSHAMTLNNDTRVSKGFVAALLDSRLPADAGMVGPMFDVGFPFAVADEKPDAESYVPRARYRKVPAVEGTALVMSRDCWDAVGGMDLSTFGRYGWGLDLDLALRARKSGYGLYTTEMAYINHFGRKTANTHFGGHRYHWGASAAMIRGLRRTHGWPAAMGILREMGMAHHRKWHKSFPLTCPASC	not soluble
LYFQGMSLEPFGARLSRAMDDRGPLCVGIDPHASLLADWGLSDDVAGLERFSRTVVEALGEHVAVFKPQSAFFERFGSRGVAVLEKTVAEARAAGALVVMDAKRGDIGSTMAAYAEAFLRKDSPLFSDALTVSPYLGYGSLRPAVELARESGAGLFVLALTSNPEGGEVQHAVRTDGRDVAATMLAHLAAENAGEEPLGSFGAVVGATLGDLSSYDLDINGPLLAPGIGAQGAAPADLPGVFGAAVRNVVPNVSRGVLRHGPDVRALRTAADRFAEEIRAAVAA	soluble
LYGYYCMQEEEQLVYWYSGLYLQPQHFQSIDLHHGFMLARSRQLSQPHHQGYYECCINDDLLKEDTVRVEKIKAVLSSGYYIEYPGNCVVQDKCLTNLKGSDHGTVDLWLALKRFNSGHKNVSSVNDKRGSARWISSDDERNMRNVYHDSQDADITRIKYDIQILTDEEKDNTTDYEYLPLTRIIYGNNSLCIDDECSFPVMRLSANHKLRNKIAEIYSDIKFYKNRLEKYRYTERTVSDGHLYNFLILCAINRTLPLLSSFINEDAIHPWLYYMALCQFAGEISTFHNSGLSDTRIVELSYNHYEQISCFSDLQYYIKLILDDSCRDKIISVEFRKITTDTLICNFDEYGAGSNSDYYIKLTSDTFRKNKLIALPEIKIAPSEHIDMIIQHALPGIKFTVMDAVTSDLQVRENTIWLKIDKHSELWTLAQTQKRVAFYWSCSPDDLLVELVLSQEKYAVSRPKQDNGSFHPAVGR	not soluble
MAAAKRKLVFDSPNESSVNFETSPNFPKEWKIDGMDIENRIRNFRDELQAQGLCPVGSAGIDPKSKFRTEYRRIVNANTILTDVLRLQQKEGEWLKNASGLLEYDIQSLHARRDHLDNAVEQLKSQLSRLDSSVAILKSQQMAVKSVLELREDEYLADDADSNLPDEFLKFSKISKLCAASLQSYENVKKRNEEMQKELIAERNRQRKLHDATMKMMEEKERVRVEQLEDLFKDFSLEQLTRLRDRIRQAQK	not soluble
MAAATTTASAFKWPWQYDFPPFFTIQKSLNTKDKQLEAWARLVIDYAQHNKIYSLDIAEATTSELFNNQKLNRRLSTDGVNTVLQYLEQKKLIEFTDNGRTRFHIFWRRPDVWANMIYQWAVENAFINTPLTLYEITHGDDTTNESFHNLEREILMKALTCLEEQRRAQLMNIGGDNEGVKFI	soluble
